Results from patent US20160152729A1 (Novo Nordisk, published 2016).
Residue numbers refer to the chain shown, from its start. Blank lines part the entries; values can stand above or below the binder they belong to.

Key:
human TFPIα [1] = target: T1, human TFPIα (human, UniProt P10646 29-304); assay: cell-based or functional assay
human TFPIα [2] = target: T1, human TFPIα; assay: cell-based or functional assay; remark: listed apart in the source
human TFPIα [3] = target: T1, human TFPIα; assay: cell-based or functional assay; remark: listed apart in the source
human TFPIα [4] = target: T1, human TFPIα; assay: cell-based or functional assay; remark: listed apart in the source
human TFPIα [5] = target: T1, human TFPIα; assay: cell-based or functional assay; remark: listed apart in the source
human TFPIα [6] = target: T1, human TFPIα; assay: SPR Biacore T200; mAb captured on anti-mouse Ig; TFPI as analyte; 1:1 model
Excerpt: (§1) Binding interaction data were obtained by means of Surface Plasmon Resonance in a Biacore T200 instrument. Polyclonal rabbit anti-mouse immunoglobulin (Mouse Antibody Capture Kit, GE Healthcare) was immobilized to a series S CM4 sensor chip (GE Healthcare) in flow-cells 1-4 using the amine coupling protocol available with the Biacore T-200 control software version 2.0 (GE Healthcare) and the reagents provided with the Amine Coupling Kit (GE Healthcare). The relevant mouse monoclonal antibody was captured in flow cell 2, 3, or 4 at a fixed concentration. Different concentrations of human TFPIα or TFPI (1-79) were tested by diluting the sample in running buffer (10 mM HEPES, pH 7.4, 300 mM NaCl, 5 mM CaCl₂, 0.05% Surfactant P20, 1 mg/ml BSA). Each sample was assayed using 300 seconds of contact time followed by 420-600 seconds of dissociation time at 30 μl/min flow rate. A buffer blank was also assayed. The sensor surface was regenerated with 10 mM Glycine pH 1.7 either for 180 sec at 30 μl/min flow rate or with two cycles each of 30 seconds at 30 μl/min flow rate.
(§2) The Biacore T200 Evaluation software (version 2.0) was used to analyse the data. Determination of binding constants (kₐ, kd, KD) was obtained assuming a 1:1 interaction of TFPI and the monoclonal antibody of interest.

human TFPI (1-79) = target: T2, human TFPI (1-79) (human, UniProt P10646 29-107); assay: as above
T2 construct: Acidic N-terminal region and KPI-1 domain
Excerpt: as §1, §2

Thrombin peak height (Peak); thrombin generation in FVIII-neutralised plasma + 5 nM TFPIα, 10 nM antibody (human TFPIα [1]): 46.5 nM
Thrombin peak height (Peak); thrombin generation in FVIII-neutralised plasma, no TFPIα added (plasma TFPI), 10 nM antibody (human TFPIα [1]): 100 nM
time to peak (ttPeak); thrombin generation in FVIII-neutralised plasma + 5 nM TFPIα, 10 nM antibody (human TFPIα [1]): 11.3 min
time to peak (ttPeak); thrombin generation in FVIII-neutralised plasma, no TFPIα added (plasma TFPI), 10 nM antibody (human TFPIα [1]): 9.1 min
Thrombin peak height (Peak); thrombin generation in FVIII-neutralised plasma + 20 nM TFPIα, 200 nM antibody (human TFPIα [2]): 23.7 nM
FXa activity (%); remaining FXa amidolytic activity after 40 min, 32 nM mAb pre-incubated with 8 nM TFPIα (human TFPIα [3]): 50.4%
FVIIa/sTF activity (%); 150 nM TFPIα, 200 nM antibody (human TFPIα [4]): 88.3%
FXa activity (%) after 100 min incubation; 4 nM TFPIα, 20 nM antibody (human TFPIα [4]): 60.8%
FXa activity (%); FXa generated after 30 min by FVIIa/Innovin/FX with 4 nM TFPIα, 64 nM antibody (human TFPIα [5]): 40.5%
Kd (human TFPIα [6]): 0.688 nM
Kd (human TFPI (1-79)): 0.965 nM
B1: mAb 2F22 (antibody, IgG1, V domains shown)
VH: QVQLKQSGPGLVQPSQSLSITCTVSGFSLTNYGVHWVRQSPGKGLEWLAVIWRGGSIDYNAAFMSRLSITKDNSKSQVFFKMNSLQADDTAIYYCAKNSHGNYVGYAMDYWGQGTSVTVSS
VL: GIVMTQSQKFMSTTVGDRVSITCKASQSVGPAVAWYQQKPGQSPKLLIYSASNRYTGVPDRFTGSGSGADFTLTISNLHSEDLADYFCQQYTSYPTFGGGTKLEIKR
notes: Murine mIgG1, kappa light chain

Thrombin peak height (Peak); thrombin generation in FVIII-neutralised plasma + 5 nM TFPIα, 10 nM antibody (human TFPIα [1]): 28.6 nM
Thrombin peak height (Peak); thrombin generation in FVIII-neutralised plasma, no TFPIα added (plasma TFPI), 10 nM antibody (human TFPIα [1]): 88.4 nM
time to peak (ttPeak); thrombin generation in FVIII-neutralised plasma + 5 nM TFPIα, 10 nM antibody (human TFPIα [1]): 13.8 min
time to peak (ttPeak); thrombin generation in FVIII-neutralised plasma, no TFPIα added (plasma TFPI), 10 nM antibody (human TFPIα [1]): 9.3 min
Thrombin peak height (Peak); thrombin generation in FVIII-neutralised plasma + 20 nM TFPIα, 200 nM antibody (human TFPIα [2]): 20.9 nM
FXa activity (%); remaining FXa amidolytic activity after 40 min, 32 nM mAb pre-incubated with 8 nM TFPIα (human TFPIα [3]): 48.9%
FVIIa/sTF activity (%); 150 nM TFPIα, 200 nM antibody (human TFPIα [4]): 88.6%
FXa activity (%) after 100 min incubation; 4 nM TFPIα, 20 nM antibody (human TFPIα [4]): 58.1%
FXa activity (%); FXa generated after 30 min by FVIIa/Innovin/FX with 4 nM TFPIα, 64 nM antibody (human TFPIα [5]): 36.6%
Kd (human TFPIα [6]): 0.448 nM
koff (human TFPIα [6]): 7.69e-05 s⁻¹
kon (human TFPIα [6]): 172000 M⁻¹ s⁻¹
Kd (human TFPI (1-79)): 0.561 nM
koff (human TFPI (1-79)): 0.000154 s⁻¹
kon (human TFPI (1-79)): 274000 M⁻¹ s⁻¹
B2: mAb 2F3 (antibody, IgG1, V domains shown)
VH: B1 VH with T30S, N31S, A49G, I57T, Y59F, L67V, I69F
VL: DIVMTQSQKFMSTTVGDKVSIPCKASENVGAAVAWYQQKPGQSPTLLIYSASNRYTGIPDRFTGSGSGTDFTLTIRTVQSEDLADYFCQQYTNYPTFGGGTKLEIKR
notes: as for B1

Thrombin peak height (Peak); thrombin generation in FVIII-neutralised plasma + 5 nM TFPIα, 10 nM antibody (human TFPIα [1]): 3.7 nM
Thrombin peak height (Peak); thrombin generation in FVIII-neutralised plasma, no TFPIα added (plasma TFPI), 10 nM antibody (human TFPIα [1]): 35.2 nM
time to peak (ttPeak); thrombin generation in FVIII-neutralised plasma + 5 nM TFPIα, 10 nM antibody (human TFPIα [1]): 47.8 min
time to peak (ttPeak); thrombin generation in FVIII-neutralised plasma, no TFPIα added (plasma TFPI), 10 nM antibody (human TFPIα [1]): 8.9 min
FXa activity (%); remaining FXa amidolytic activity after 40 min, 32 nM mAb pre-incubated with 8 nM TFPIα (human TFPIα [3]): 5.5%
FXa activity (%); FXa generated after 30 min by FVIIa/Innovin/FX with 4 nM TFPIα, 64 nM antibody (human TFPIα [5]): 18.4%
Kd (human TFPIα [6]): 9.81 nM
koff (human TFPIα [6]): 0.00361 s⁻¹
kon (human TFPIα [6]): 368000 M⁻¹ s⁻¹
Kd (human TFPI (1-79)): 13.5 nM
koff (human TFPI (1-79)): 0.00505 s⁻¹
kon (human TFPI (1-79)): 375000 M⁻¹ s⁻¹
B3: mAb 1F56 (antibody, V domains shown)
VH: DVQLQESGPGLVKPSQSLSLTCTVSGYSITSDYAWNWIRQFPGNKLEWMGYISYSGSTSYNPSLKSRISITRDTSKNQFFLQLNSVTTEDTATYYCARWAYDGPWGQGTLVTVSA
VL: QIVLSQSPALLSASPGEKVTMTCRASSSVSHMHWYQQKPGSSPKPWIYATSNLASGVPARFSGSGSGTSYSLTITRVEAEDAATYYCQQWSSNPFTFGSGTKLEIKR
notes: murine antibody from hybridoma
